Measured values published in patent US20260139057A1 (University of California, published 2026).
Positions count from the first letter of the chain named. Values belong to the binder of their own block, whether it stands above or below them.

Assays:
[1] = target: integrin αvβ6 ectodomain (immobilized) (human, UniProt P06756 31-992; P18564 22-709); test: cell-based or functional assay
[2] = target: T1, integrin αvβ3 on HEK 293 cells stably expressing αvβ3 (Homo sapiens (Human), UniProt P06756 31-1048; P05106 27-788); test: flow cytometry on HEK 293 cells stably expressing αvβ3
T1 construct: also called αvβ3 expressing 293 cells
Source text: A) Binding of anti-β3 (AP3) relative to F12 IgG4, H4C8 RGD1 IgG4,H4C8 RGD3 IgG4, H3C8 RGD3 with VL Fr4 V108/L109 (mouse) IgG4, H4C8 RGD3 IgG4, H3C8 RGD3 VL Fr4 K108/V109 (human) IgG4, H4C8 RGD1 VH Fr3 E72, H4C8 RGD3 VH Fr3 E72 IgG4. HEK 293 cells stably expressing αvβ3 were stained and the percentage of relative binding to the mean fluorescence intensity of AP3 is shown, B) Expi293 cells transiently expressing αvβ6 were stained and the percentage of relative binding to the mean fluorescence intensity of 3G9 is shown, C) HEK 293 cells stably expressing αvβ8 were stained and the percentage of relative binding to the mean fluorescence intensity of HuF12 is shown. All primary antibodies were used at 2.5 ug/ml. […] Binding or 3G9 is shown and percent binding of antibodies relative to 3G9 binding to αvβ6 is shown. Dotted line indicate binding observed with each positive control antibody,
RGD ligands bind promiscuously to a number of integrins. A highly desirable quality in RGD-mimetics is to retain specificity for some but not all integrins. One highly desirable property would be a dual inhibitor to both the αvβ8- and αvβ6-integrins, without cross-reactivity to other integrins. This property would facilitate specific targeting of integrin-mediated TGF-β activation without the liability of side-effects mediated by broadly blocking other integrins. We first measured binding to αvβ3 expressing 293 cells. Binding of anti-β3 (AP3) relative to F12 IgG4, H4C8 RGD1 IgG4,H4C8 RGD3 IgG4, H3C8 RGD3 with VL Fr4 V108/L109 (mouse) IgG4, H4C8 RGD3 IgG4, H3C8 RGD3 VI Fr4 K108/V109 (human) IgG4, H4C8 RGD1 Vh Fr3 E72, H4C8 RGD3 Vh Fr3 E72 IgG4. […] Expi293 cells transiently expressing αvβ6 were stained and the percentage of relative binding to the mean fluorescence intensity of anti-β6 (3G9) determined.

[3] = target: T2, integrin αvβ1 ectodomain (immobilized) (Homo sapiens (Human), UniProt P06756 31-992; P05556 21-728); test: binding to immobilized integrin ectodomains blocked with BSA
T2 construct: R&D Systems; copies: 1 + 1
T2 sequence (P06756 31-992 limits assumed, chain 1 of 2): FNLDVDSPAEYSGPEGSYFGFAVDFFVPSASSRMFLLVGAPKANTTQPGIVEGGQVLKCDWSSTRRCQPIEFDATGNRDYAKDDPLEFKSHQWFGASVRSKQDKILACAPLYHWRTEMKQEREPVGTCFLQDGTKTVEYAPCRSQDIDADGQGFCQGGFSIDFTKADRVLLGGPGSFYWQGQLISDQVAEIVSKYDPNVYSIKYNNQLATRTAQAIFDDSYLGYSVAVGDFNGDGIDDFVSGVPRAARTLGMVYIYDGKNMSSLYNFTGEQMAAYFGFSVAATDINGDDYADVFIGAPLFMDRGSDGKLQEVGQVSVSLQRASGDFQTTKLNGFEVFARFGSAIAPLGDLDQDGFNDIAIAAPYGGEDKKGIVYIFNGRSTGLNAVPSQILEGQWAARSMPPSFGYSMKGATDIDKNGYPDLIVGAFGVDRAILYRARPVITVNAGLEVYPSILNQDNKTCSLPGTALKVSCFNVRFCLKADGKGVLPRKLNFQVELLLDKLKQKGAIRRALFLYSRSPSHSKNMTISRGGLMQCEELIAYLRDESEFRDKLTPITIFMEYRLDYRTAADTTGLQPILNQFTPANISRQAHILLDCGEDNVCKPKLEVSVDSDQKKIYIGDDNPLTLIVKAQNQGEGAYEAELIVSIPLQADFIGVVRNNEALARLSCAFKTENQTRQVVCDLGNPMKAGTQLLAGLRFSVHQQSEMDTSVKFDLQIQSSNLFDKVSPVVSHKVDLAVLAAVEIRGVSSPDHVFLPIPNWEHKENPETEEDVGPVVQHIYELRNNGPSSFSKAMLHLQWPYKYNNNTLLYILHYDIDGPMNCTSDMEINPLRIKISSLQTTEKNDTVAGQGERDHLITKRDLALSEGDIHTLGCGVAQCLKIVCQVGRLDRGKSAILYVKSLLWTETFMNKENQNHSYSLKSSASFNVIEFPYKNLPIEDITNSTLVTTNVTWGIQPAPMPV
T2 sequence (P05556 21-728 limits assumed, chain 2 of 2): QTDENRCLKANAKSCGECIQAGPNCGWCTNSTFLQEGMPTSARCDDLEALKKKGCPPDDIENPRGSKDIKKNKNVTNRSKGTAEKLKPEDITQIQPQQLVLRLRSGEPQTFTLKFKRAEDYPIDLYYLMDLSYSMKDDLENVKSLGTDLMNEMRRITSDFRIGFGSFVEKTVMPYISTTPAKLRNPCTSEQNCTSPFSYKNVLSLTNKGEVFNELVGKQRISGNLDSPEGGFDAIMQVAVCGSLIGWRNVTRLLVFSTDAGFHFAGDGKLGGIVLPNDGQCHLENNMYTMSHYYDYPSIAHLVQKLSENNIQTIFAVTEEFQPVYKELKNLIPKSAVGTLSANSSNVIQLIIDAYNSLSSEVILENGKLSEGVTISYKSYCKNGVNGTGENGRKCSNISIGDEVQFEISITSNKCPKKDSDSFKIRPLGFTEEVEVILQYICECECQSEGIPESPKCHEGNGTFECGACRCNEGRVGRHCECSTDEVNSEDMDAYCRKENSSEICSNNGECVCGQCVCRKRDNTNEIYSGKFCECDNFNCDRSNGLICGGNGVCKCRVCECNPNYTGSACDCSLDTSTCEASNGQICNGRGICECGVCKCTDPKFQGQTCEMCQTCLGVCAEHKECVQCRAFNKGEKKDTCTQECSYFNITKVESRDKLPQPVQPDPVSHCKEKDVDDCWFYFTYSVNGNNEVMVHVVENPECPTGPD

[4] = target: T3, integrin αvβ5 ectodomain (immobilized) (Homo sapiens (Human), UniProt P06756 31-992; P18084 24-719); test: as above
T3 construct: R&D Systems; copies: 1 + 1
T3 sequence (P06756 31-992 limits assumed, chain 1 of 2): as the sequence (P06756 31-992 limits assumed, chain 1 of 2) above
T3 sequence (P18084 24-719 limits assumed, chain 2 of 2): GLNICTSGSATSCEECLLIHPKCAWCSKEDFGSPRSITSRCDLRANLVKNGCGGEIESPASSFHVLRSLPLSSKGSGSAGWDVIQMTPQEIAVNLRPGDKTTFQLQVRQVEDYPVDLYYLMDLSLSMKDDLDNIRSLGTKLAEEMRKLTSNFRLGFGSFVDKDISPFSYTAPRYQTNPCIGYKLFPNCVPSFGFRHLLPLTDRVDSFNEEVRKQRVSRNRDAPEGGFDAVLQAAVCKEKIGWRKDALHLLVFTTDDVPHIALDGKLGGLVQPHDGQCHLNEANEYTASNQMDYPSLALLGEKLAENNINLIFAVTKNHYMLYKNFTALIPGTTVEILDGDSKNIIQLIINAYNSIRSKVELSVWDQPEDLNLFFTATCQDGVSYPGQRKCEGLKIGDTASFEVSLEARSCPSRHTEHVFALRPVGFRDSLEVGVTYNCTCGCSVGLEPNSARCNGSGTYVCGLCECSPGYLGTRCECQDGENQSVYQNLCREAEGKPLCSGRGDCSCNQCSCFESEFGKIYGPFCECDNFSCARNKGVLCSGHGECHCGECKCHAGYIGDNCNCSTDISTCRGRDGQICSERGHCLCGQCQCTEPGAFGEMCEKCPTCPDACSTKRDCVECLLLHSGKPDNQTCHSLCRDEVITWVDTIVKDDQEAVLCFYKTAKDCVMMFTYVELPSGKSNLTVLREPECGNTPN

[5] = target: T4, recombinant human integrin αvβ8 ectodomain (human, UniProt P06756 31-992; P26012 43-681); test: cell-based or functional assay
T4 sequence (P06756 31-992 limits assumed, chain 1 of 2): as the sequence (P06756 31-992 limits assumed, chain 1 of 2) above
T4 sequence (P26012 43-681 limits assumed, chain 2 of 2): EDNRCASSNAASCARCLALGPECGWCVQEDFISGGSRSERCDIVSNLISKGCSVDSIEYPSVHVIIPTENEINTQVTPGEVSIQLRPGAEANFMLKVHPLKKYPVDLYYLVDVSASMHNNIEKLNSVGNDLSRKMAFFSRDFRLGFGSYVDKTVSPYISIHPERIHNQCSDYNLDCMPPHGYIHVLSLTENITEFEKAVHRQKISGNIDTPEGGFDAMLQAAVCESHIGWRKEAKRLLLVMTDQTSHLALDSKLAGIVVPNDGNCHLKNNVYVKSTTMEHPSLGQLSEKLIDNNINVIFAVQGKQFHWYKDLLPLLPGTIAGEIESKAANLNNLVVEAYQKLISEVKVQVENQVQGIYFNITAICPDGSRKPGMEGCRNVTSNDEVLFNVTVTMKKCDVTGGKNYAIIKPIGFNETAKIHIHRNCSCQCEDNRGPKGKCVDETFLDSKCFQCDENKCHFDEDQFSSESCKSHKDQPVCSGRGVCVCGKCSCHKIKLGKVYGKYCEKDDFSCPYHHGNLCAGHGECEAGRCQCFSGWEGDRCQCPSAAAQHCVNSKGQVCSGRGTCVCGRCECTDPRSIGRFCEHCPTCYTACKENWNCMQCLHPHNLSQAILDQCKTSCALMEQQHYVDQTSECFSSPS

[6] = target: T2, integrin αvβ1 ectodomain (immobilized); test: binding to immobilized ectodomains
[7] = target: T3, integrin αvβ5 ectodomain (immobilized); test: binding to immobilized ectodomains
[8] = target: T4, recombinant human integrin αvβ8 …; test: cell-based or functional assay; remark: listed apart in the source
[9] = target: T4, recombinant human integrin αvβ8 …; test: cell-based or functional assay; remark: listed apart in the source
[10] = target: T4, recombinant human integrin αvβ8 …; test: cell-based or functional assay; remark: listed apart in the source
[11] = target: T4, recombinant human integrin αvβ8 …; test: KinExA; antibody format and antigen form not stated
[12] = target: T5, human integrin αvβ8 on transfected cells (CHO cells stably transfected; HEK 293 cells stably expressing αvβ8) (human, UniProt P06756 31-1048; P26012 43-769); test: flow cytometry on unfixed CHO cells expressing human αvβ8, antibody titrated, hyperbolic least-squares fit (m3 = KD); curves on D00025 [Cont.]
T5 construct: whole, on cells; also called CHO αvβ8 cells; αvβ8 expressing CHO cells
Experimental: (§1) FIG. 17: Characterization of cell surface binding of humanized affinity optimized anti-αvβ8 antibodies. The cell surface binding affinities of H4C8, H4G9, H4C10, H4G8 compared to HuC6D4F12 expressed as IgG4 (S228P to prevent arm exchange, R409K and L445P to reduce aggregation and to promote stability). […] Cell surface affinity was determined using the least-squares fit model based on the hyperbolic equation y=m1+m2*m0/(m3+m0), where y=MFI at different avb8 concentrations; m0=αvβ8 concentration; m1=MFI with no αvβ8; m2=MFI at saturation; and m3=KD.
(§2) FIG. 18: Binding characteristics of H4C8 of formalin fixed αvβ8 compared to HuC6D4F12 or ADWA11 2.4 (from Pat no. US2020/0079855 A1). CHO αvβ8 expressing cells were fixed in 2% buffered formalin in PBS for 15 min at RT and then stained at the indicated concentrations as described in FIG. 17. The binding affinities to unfixed or formalin fixed cells is shown. Cell surface affinity was determined using the least-squares fit model based on the hyperbolic equation y=m1+m2*m0/(m3+m0), where y=MFI at different αvβ8 concentrations; m0=αvβ8 concentration; m1=MFI with no αvβ8; m2=MFI at saturation; and m3=KD.

[13] = target: T5, human integrin αvβ8 on transfected …; test: flow cytometry on CHO cells expressing human αvβ8 fixed in 2% buffered formalin for 15 min, antibody titrated, hyperbolic least-squares fit (m3 = KD); curves on D00025 [Cont.]
Experimental: as §1, §2

Chain of integrin αvβ6 ectodomain (immobilized) (P06756 31-992, chain 1 of 2): as the sequence (P06756 31-992 limits assumed, chain 1 of 2) above
Chain of integrin αvβ6 ectodomain (immobilized) (P18564 22-709, chain 2 of 2): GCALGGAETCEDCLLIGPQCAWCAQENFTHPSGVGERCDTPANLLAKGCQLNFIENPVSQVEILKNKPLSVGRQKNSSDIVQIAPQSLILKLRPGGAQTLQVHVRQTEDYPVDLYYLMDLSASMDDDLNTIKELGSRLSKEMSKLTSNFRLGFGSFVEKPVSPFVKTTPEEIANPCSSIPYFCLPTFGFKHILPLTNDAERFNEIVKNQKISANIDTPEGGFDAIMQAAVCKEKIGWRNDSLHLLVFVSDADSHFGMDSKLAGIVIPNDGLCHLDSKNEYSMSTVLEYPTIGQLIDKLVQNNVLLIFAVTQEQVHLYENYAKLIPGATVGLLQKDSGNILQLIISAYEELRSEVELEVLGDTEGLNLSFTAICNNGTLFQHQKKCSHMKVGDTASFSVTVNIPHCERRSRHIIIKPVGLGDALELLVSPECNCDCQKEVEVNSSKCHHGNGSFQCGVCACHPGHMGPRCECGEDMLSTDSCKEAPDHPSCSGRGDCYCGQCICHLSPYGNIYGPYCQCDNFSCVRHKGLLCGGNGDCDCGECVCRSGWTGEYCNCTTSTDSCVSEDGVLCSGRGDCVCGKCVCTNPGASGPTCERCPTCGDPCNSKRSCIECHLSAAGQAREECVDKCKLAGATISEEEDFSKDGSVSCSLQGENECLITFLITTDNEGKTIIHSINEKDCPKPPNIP

ED50 of the inhibition of αvβ8-mediated TGF-β activation (immobilized αvβ8, TMLC GARP/L-TGF-β reporter cells) [8]: 0.23 µg/mL
IC50 of the inhibition of TGF-β activation (TMLC GARP/TGF-β1 reporter cells on αvβ8-coated wells) [9]: 3.1 µg/mL
EC50 of inhibition of αvβ8-mediated TGF-β activation [10]: 0.23 µM
B4: HuC6D4 IgG2a (antibody, V domains shown)
VH: QIQLVQSGAEVKKPGASVKISCKASGYTFTDYSMHWVRQAPGQGLEWVARINTETGEPTFADDFRGRFTVTLDTSTSTAYLEIRSLRSDDTAVYFCAIFYYGRDTWGQGTTLTVSS
VL: EIVMTQSPATLSVSPGERVTMSCKSSQSLLNSRSRKNYLAWYQQKPGQAPRLLIYWASTRESGVPARFSGSGSGTEFTLTISSVQSEDFAVYYCKQSYNLLSFGQGTVLEIKR

IC50 of the inhibition of TGF-β activation (TMLC GARP/TGF-β1 reporter cells on αvβ8-coated wells) [9]: 0.337 µg/mL
B5: huF12 VH with huC6D4 VL, murine IgG2a (antibody, V domains shown)
VH: B4 VH with D31K
VL: B4 VL

ED50 of the inhibition of αvβ6-mediated TGF-β activation (immobilized human αvβ6, TMLC GARP/L-TGF-β reporter cells) [1]: 1.54 µg/mL
binding result [3]: no binding
binding result [4]: no binding
ED50 of the inhibition of αvβ8-mediated TGF-β activation (immobilized human αvβ8, TMLC GARP/L-TGF-β reporter cells) [5]: 3.3 µg/mL
B8: HuC6D4 RGD3, mouse IgG2a (antibody, V domains shown)
VH: B4 VH
VL: EIVMTQSPATLSVSPGERVTMSCKSSQSLLGRGDLGRLKKNALAWYQQKPGQAPRLLIYWASTRESGVPARFSGSGSGTEFTLTISSVQSEDFAVYYCKQSYNLLSFGQGTVLEIKR
notes: Mouse IgG2a

IC50 of the inhibition of TGF-β activation (TMLC GARP/TGF-β1 reporter cells on αvβ8-coated wells) [9]: 1.15 µg/mL
B9: huC6D4 VH with huF12 VL, murine IgG2a (antibody, V domains shown)
VH: B4 VH
VL: B4 VL with N31H

More lines, now with the values behind:

B1: H4C8 RGD3, human IgG4 (antibody, V domains shown)
VH: QVQLVQSGAEVKKPGASVKVSCKVSGYTLTRQSMHWVRQAPGKGLEWMGRINTETGEPTYAQKFQGRVTMTQDTSTDTAYMELSSLRSEDTAVYFCAIFYYGRDTWGQGTTVTVSS
VL: B8 VL with M21L, S66T, V88L, V112K, L113V
notes: also called H4C8 RGD3 IgG4
ED50 of the inhibition of αvβ6-mediated TGF-β activation (immobilized human αvβ6, TMLC GARP/L-TGF-β reporter cells) [1]: 0.03 µg/mL
binding result [2]: no binding (tested: 2.5 µg/ml)
binding result [3]: no binding
binding result [4]: no binding
ED50 of the inhibition of αvβ8-mediated TGF-β activation (immobilized human αvβ8, TMLC GARP/L-TGF-β reporter cells) [5]: 0.02 µg/mL

B2: H3C8 RGD3, human IgG4 (VL Fr4 K108/V109, human) (antibody, V domains shown)
VH: B1 VH with R31E
VL: B8 VL with M21L, S66T, V88L, V112K, L113V
notes: also called H3C8 RGD3 VL Fr4 K108/V109 (human) IgG4
ED50 of the inhibition of αvβ6-mediated TGF-β activation (immobilized human αvβ6, TMLC GARP/L-TGF-β reporter cells) [1]: 0.07 µg/mL
binding result [2]: no binding (tested: 2.5 µg/ml)
binding result [6]: no binding
binding result [7]: no binding
ED50 of the inhibition of αvβ8-mediated TGF-β activation (immobilized human αvβ8, TMLC GARP/L-TGF-β reporter cells) [5]: 0.84 µg/mL

B3: H4C8 RGD1, human IgG4 (antibody, V domains shown)
VH: B1 VH
VL: EIVMTQSPATLSVSPGERVTLSCKSSQSLLRRGDLATIHGNALAWYQQKPGQAPRLLIYWASTRETGVPARFSGSGSGTEFTLTISSLQSEDFAVYYCKQSYNLLSFGQGTKVEIKR
notes: also called H4C8 RGD1 IgG4
ED50 of the inhibition of αvβ6-mediated TGF-β activation (immobilized human αvβ6, TMLC GARP/L-TGF-β reporter cells) [1]: 0.04 µg/mL
binding result [2]: no binding (tested: 2.5 µg/ml)
binding result [3]: no binding
binding result [4]: no binding
ED50 of the inhibition of αvβ8-mediated TGF-β activation (immobilized human αvβ8, TMLC GARP/L-TGF-β reporter cells) [5]: 0.07 µg/mL

B6: HuC6D4F12 (format not stated) (antibody, V domains shown)
VH: B4 VH with D31K
VL: B4 VL with N31H
notes: also called HuF12; huF12
Kd [11]: 0.00236 nM
Kd [12]: 2.6 nM
Kd [13]: 6.4 nM

B7: H4C8m (H4C8 with non-humanized, murine VL Fr4), human IgG4 (antibody, V domains shown)
VH: B1 VH
VL: B4 VL with M21L, K24R, N31H, S62T, V84L
ED50 of the inhibition of αvβ8-mediated TGF-β activation (immobilized αvβ8, TMLC GARP/L-TGF-β reporter cells) [8]: 0.03 µg/mL
EC50 of inhibition of αvβ8-mediated TGF-β activation [10]: 0.3 µM

B10: H3.C12, human IgG4 (antibody, V domains shown)
VH: B1 VH with R31E
VL: B4 VL with K24R, N31H, S34T, S62T, V84L
ED50 of the inhibition of αvβ8-mediated TGF-β activation (immobilized αvβ8, TMLC GARP/L-TGF-β reporter cells) [8]: 0.25 µg/mL
EC50 of inhibition of αvβ8-mediated TGF-β activation [10]: 0.25 µM

B11: HuC6D4 (format not stated) (antibody, V domains shown)
VH: B4 VH
VL: B4 VL
Kd [11]: 0.0821 nM
